Four molecules from patent publication US20230144203A1 (SHANGHAI SENHUI MEDICINE CO., LTD., priority 2020, published 2023) can be followed below.

The subject of data set [1] is human diffuse large B-cell lymphoma WSU-DLCL2. Kind of data set: Test Example 3 nude mouse subcutaneous xenograft tumor efficacy. Here is the method: Human diffuse large B-cell lymphoma WSU-DLCL2 cells were purchased from DSMZ. WSU-DLCL2 cells were cultured in a 10-cm petri dish with RPMI 1640 medium (Gibco) containing 10% fetal bovine serum, penicillin and streptomycin (GIBCO, Cat #15070-063) and incubated in an incubator at 37° C. with 5% CO2. Subculturing was carried out 2-3 times a week and cells were collected, counted and inoculated when the cells grew in long-term exponentially.
Female BALB/c-nu nude mice with a growth period of 28-35 days was purchased from Beijing Huafukang Biotechnology Co., Ltd. Production license No.: SCXK (Beijing) 2019-0008, animal certification No.: 1103221911012510. Housing environment: SPF grade.
Each nude mouse was subcutaneously inoculated with 2.0×10^7 WSU-DLCL2 cells, and after the tumor volume grew to −100 mm^3, the animals were grouped according to tumor volume (D0). The mice was administrated by intravenous injection (IV), and the administration volume was 10 mL/kg; specific dosages and schedules are shown in Table 3. The tumor volumes and body weights were measured twice a week and the results were recorded.
The experimental index is to study the influence of the drug on the tumor growth, and the specific index is T/C % or tumor growth inhibition TGI (%). Tumor diameters were measured twice weekly with a vernier caliper and tumor volume (V) was calculated according to the following formula:
where a and b represent length and width, respectively. T/C (%)=(T−T0)/(C−C0)×100, where T and C were tumor volumes at the end of the experiment; T0 and C0 were tumor volumes at the beginning of the experiment.
If the volume of tumor shrank compared with its initial volume, i.e., T<T0 or C<C0, it was defined as partial regression(PR) of tumor; if the tumor completely disappeared, it was defined as complete regression (CR) of tumor.
Unless otherwise indicated, comparison between tumor volumes of the two groups was made by two-tailed student's t-test, with P<0.05 defined as statistically significant difference.

The target in data set [2] is T1, human CD79B (Homo sapiens, UniProt P40259).
T1 construct: endogenous in cells; host or cells: DOHH2
T1 sequence (P40259 29-229): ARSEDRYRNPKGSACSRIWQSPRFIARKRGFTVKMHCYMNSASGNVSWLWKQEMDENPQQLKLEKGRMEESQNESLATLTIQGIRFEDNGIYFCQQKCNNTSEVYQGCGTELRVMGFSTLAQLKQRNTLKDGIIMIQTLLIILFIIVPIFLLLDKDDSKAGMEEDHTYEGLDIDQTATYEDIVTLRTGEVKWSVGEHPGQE
T1 sequence (P11912 33-226 partner): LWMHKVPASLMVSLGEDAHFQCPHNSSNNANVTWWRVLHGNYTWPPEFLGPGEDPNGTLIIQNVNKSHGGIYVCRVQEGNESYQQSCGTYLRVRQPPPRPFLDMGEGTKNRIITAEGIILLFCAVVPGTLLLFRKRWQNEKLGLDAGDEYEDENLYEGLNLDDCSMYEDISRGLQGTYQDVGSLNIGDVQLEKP
The experiment in a line: FACS of culture supernatant of anti-human CD79B hybridoma positive clones on DOHH2 cells. The format is binding. The method, then:
4) FACS screening: after centrifugation, the cell suspension of DOHH2 was resuspended in PBS containing 0.1% BSA, counted, added with the test cell supernatant and incubated at room temperature for 60 min. The cells were washed three times, then added with Anti-Mouse IgG (Fc specific)-FITC secondary antibody, and incubated at room temperature for 30 min in the dark. The cells were washed three times, gently resuspended in PBS containing 0.1% BSA, and then assayed using the machine.
5) Hybridoma positive clone identification: after fusion and subclone screening of mouse splenocytes, multiple specific antibodies against human CD79B antigen were obtained, and the antibodies from the 17 strains of hybridomas having the highest binding to ELISA and FACS were produced and purified. Meanwhile, specific antibodies against monkey CD79B antigen were obtained, and the 4 strains of hybridomas having the highest binding to ELISA and FACS were taken for production and purification of antibodies. mIgG was used as negative control in the both assays.

Data set [3] concerns the target T2, human CD79B (Homo sapiens, UniProt P40259).
T2 construct: the extracellular region (ECD) of which comprises 159 amino acids (Met1-Asp159); human Fc domain (hFc) OR His tag; made in house; host or cells: 293F cells
T2 sequence (P40259 29-159 limits assumed): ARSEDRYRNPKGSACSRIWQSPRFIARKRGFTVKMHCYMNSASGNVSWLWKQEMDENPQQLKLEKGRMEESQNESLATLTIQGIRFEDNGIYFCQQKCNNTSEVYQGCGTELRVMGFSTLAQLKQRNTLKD
The experiment in a line: ELISA of culture supernatant of anti-human CD79B hybridoma positive clones. The note with it: 1 μg/mL coated antigen. The format is binding. Here is the method: (§1) 3) ELISA screening: the 96-well plates were correspondingly labeled before experiment, and coated with 1 μg/mL antigen at 50 μL per well in a refrigerator at 4° C. overnight. The next day, the coated antigen plates from the previous day were removed and washed once with a plate washer (cleaning solution: 1×PBST). After washing, the plates were blocked with 1% BSA blocking solution prepared in 1×PBST at 37° C. for 1 h. After being washed with 1×PBST cleaning solution for 3 times, the plates were added with 50 μL cell supernatant to be detected, and incubated in a 37° C. incubator for 1 h. After the plates were washed with 1×PBST cleaning solution for 3 times, added with 100 μL of goat anti-mouse secondary antibody diluted at 1:5000, and incubated in an incubator at 37° C. for 0.5 h. The plates were washed, the TMB color developing solution A solution and B solution in a ratio of 1:1 was taken for to color development. The color development reaction was terminated with 1 N hydrochloric acid for 15 min. Fluorescence value was read at 450 nm on a Spectra Max M5 multi-functional plate reader.
5) Hybridoma positive clone identification: after fusion and subclone screening of mouse splenocytes, multiple specific antibodies against human CD79B antigen were obtained, and the antibodies from the 17 strains of hybridomas having the highest binding to ELISA and FACS were produced and purified. […]
For orientation: ELISA stands for enzyme-linked immunosorbent assay.

Data set [4] deals with T2, human CD79B. The experiment in a line: ELISA assay on purified anti-human CD79B mouse monoclonal antibodies. The format is binding. Here is the method:
as §1, with “2)” for “3)”, “assay on anti-human CD79B mouse monoclonal antibodies:” for “screening:”, “of diluted antibody at 1:10 at 100 nM,” for “cell supernatant to be detected,”

In data set [5] the target is T1, human CD79B. Kind of data set: FACS assay on purified anti-human CD79B mouse monoclonal antibodies (DOHH2 cells). The format is binding. Here is the method:
3) FACS assay on anti-human CD79B mouse monoclonal antibodies: after centrifugation, the cell suspension of DOHH2 was resuspended in PBS containing 0.1% BSA, counted, added with 100 μL of antibody diluted 1:10 at 100 nM and incubated at room temperature for 1 h. The cells were washed three times, then added with Anti-Mouse IgG (Fc specific)-FITC secondary antibody, and incubated at room temperature for 30 min in the dark. The cells were washed three times, gently resuspended in PBS containing 0.1% BSA, and then assayed using the machine.

In data set [6] the target is T3, huTROP-2 on CHO-K1 cells over-expressing huTROP-2 protein (human, UniProt P09758 27-323).
T3 construct: No signal peptide cleavage is stated for this form; also called CHO-K1/hTROP-2
T3 sequence: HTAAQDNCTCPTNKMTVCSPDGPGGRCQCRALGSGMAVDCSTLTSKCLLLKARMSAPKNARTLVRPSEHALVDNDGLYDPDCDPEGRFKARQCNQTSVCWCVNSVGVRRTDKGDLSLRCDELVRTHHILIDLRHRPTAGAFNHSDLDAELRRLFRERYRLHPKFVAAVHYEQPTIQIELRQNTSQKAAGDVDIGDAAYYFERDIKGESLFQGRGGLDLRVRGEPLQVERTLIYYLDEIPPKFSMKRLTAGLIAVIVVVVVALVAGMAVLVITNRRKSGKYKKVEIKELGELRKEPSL
The experiment in a line: activity verification on CHO-K1 cells over-expressing huTROP-2 (method not detailed).

The target of data set [7] is T4, huTROP-2 protein (His27-Thr274 Accession #NP_002344.2) (human, UniProt P09758 27-274).
T4 sequence: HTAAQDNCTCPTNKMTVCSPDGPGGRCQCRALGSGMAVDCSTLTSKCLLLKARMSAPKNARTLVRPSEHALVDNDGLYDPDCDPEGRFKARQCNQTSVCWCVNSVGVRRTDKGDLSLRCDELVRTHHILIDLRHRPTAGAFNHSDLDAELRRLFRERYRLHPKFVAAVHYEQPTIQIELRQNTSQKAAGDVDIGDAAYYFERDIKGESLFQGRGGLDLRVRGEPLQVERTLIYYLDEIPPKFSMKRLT
The experiment in a line: activity verification with huTROP-2 protein His27-Thr274 (method not detailed).

For the molecule polatuzumab [Polivy], in data set [1] (1 mg/kg IV at D0, no significant weight loss), the “Tolerability in tumor-bearing mice” value is on record as “could well tolerate”. For the same molecule, the “Mean tumor volume (mean ± SEM)” value in data set [1] (D0, 1 mg/kg IV at D0) amounted to 108.07 ± 1.31 mm^3. Also, in data set [1] (D17, 1 mg/kg IV at D0), the “Mean tumor volume (mean ± SEM)” value worked out at 550.88 ± 52.37 mm^3, the T/C % was 63% and the “Tumor inhibition rate (%)” value turned out to be 37%.

B1: mAb015: anti-human CD79B mouse monoclonal antibody, VH SEQ ID NO: 3, VL SEQ ID NO: 4 (antibody, V domains shown)
VH: QVQLQQSGAELARPGASVKLSCKASGSSFTSYGINWVKQRTGQGLEWIGEIFPRSGNTYYNEKFEGKATLTADKSSSTAYMELRSLTSEDSAVYFCAKGDLGDFDYWGQGTTLTVSS
VL: DFLMTQTPLSLPVRLGDQASISCRSSQSIVHSDGNTYFEWYLQKPGQSPKLLIYKVSNRFSGVPDRFSGSGSGTDFTLKISRVEAEDLGVYYCFQGSHVPWTFGGGTKLEIK
In the data set with human CD79B [2], B1 had a Mean fluorescence value of 10036. Further, in the data set with human CD79B [3], the “Results (OD450)” value came out at 3.41. Moreover, the ELISA binding capacity result in the data set with human CD79B [4] is listed as “highest ELISA binding capacity”. In addition, the FACS binding capacity result with human CD79B [5] is recorded as “highest FACS binding capacity”.

B2: mAb017: anti-human CD79B mouse monoclonal antibody, VH SEQ ID NO: 5, VL SEQ ID NO: 6 (antibody, V domains shown)
VH: QVQLQQSGAELARPGASVKLSCKASGYTFTTYGINWVKQRTGQGLEWIGEIYPRSGNIYYNEKFKGKATLTADKSSSTAYMELRSLTSEDSAVYFCARGSDYDGDFAYWGQGTLVTVSA
VL: DVLMTQTPLSLPVSLGDQASISCRSSQSIVHHDGNTYLEWYLQKPGQSPKLLIYKVSNRFSGVPDRFSGSGSGTDFTLKISRVEAEDLGVYYCFQGSHVPWTFGGGTQLEIK
Molecule B2 gave a Mean fluorescence value with human CD79B [2] of 8132. For the same molecule, the “Results (OD450)” value with human CD79B [3] was found to be 3.80. Also, the ELISA binding capacity entry in the data set with human CD79B [4] is given as “highest ELISA binding capacity”. For the same molecule, the FACS binding capacity entry in the data set with human CD79B [5] was “highest FACS binding capacity”.

B3: anti-TROP-2 antibody PD3 (antibody, human IgG1, kappa, V domains shown)
VH: EVQLVQSGSELKKPGASVKVSCKASGYTFTNYGMNWVKQAPGQGLKWMGWINTYTGEPTYTQDFKGRFAFSLDTSVSTAYLQISSLKAEDTAVYYCARGGFGSSYWYFDVWGQGTLVTVSS
VL: DIQLTQSPSSLSASVGDRVSITCKASQDVSIAVAWYQQKPGKAPKLLIYSASYRYTGVPDRFSGSGSGTDFTLTISSLQPEDFAVYYCQQHYITPLTFGAGTKVEIKR
notes: also called anti-human TROP-2 monoclonal antibody
Consider B3, for which the binding result in data set [6] and in data set [7] was “binds” in each case.
